# In patent US20110065645A1, “Compositions and Methods for Modulating Neuron Degeneration and Neuron Guidance” (The Regents of the University of California, priority 2009, published 2011):
# T1: Fzd3 (Mus musculus, UniProt Q61086)
# T1 construct: expressed in transfected cells; host or cells: HEK293T
# T1 sequence (Q61086 23-666): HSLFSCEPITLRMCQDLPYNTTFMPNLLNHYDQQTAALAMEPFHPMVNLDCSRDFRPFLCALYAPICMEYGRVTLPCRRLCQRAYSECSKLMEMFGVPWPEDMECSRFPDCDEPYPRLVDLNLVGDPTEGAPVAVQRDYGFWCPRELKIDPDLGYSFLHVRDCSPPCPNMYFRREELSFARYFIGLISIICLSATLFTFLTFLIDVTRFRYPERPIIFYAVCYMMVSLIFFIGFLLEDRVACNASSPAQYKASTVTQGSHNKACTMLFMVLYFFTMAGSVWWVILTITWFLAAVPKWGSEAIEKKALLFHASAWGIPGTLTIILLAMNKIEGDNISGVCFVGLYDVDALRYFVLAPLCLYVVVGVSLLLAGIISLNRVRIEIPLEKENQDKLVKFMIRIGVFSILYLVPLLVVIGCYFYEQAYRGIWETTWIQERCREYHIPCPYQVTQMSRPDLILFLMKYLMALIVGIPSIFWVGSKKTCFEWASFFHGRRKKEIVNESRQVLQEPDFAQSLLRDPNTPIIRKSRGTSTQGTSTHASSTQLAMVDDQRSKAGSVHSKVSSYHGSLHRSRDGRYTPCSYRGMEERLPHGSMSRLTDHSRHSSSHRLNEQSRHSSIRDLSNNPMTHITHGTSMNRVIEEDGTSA
# Assays:
# JNK = experiment: Phospho-Jun immunoblot in dissociated commissural neurons; assay type: cell-based, rat; settings: within 15 minutes of bath application; 200 ng/ml
# Source text: JNK is activated by Wnt5a in commissural axons and required for their A-P guidance. Several Wnt genes are expressed in an anterior-posterior gradient in or around the floor plate of the spinal cord. However, the mechanisms of how Wnt signaling mediates axon attraction and growth have yet to be elucidated. We tested whether JNK signaling is activated in commissural neurons via Wnt5a stimulation by measuring the levels of phospho Jun (FIG. 20A) and also examined whether JNK is required for A-P guidance of commissural axons. Commissural neurons were cultured for 36 hrs and subject to bath application of Wnt5a. […] Furthermore, endogenous Fzd3 and Vgl2 proteins can be detected in rat E13 commissural neuron lysates after 36 hours in culture (anti-Fzd3 and anti-Vgl2 IB, FIG. 20A). The specificity of Fzd3 and Vgl2 antibodies for western blot analysis was validated using knock and mutant mouse line (FIG. 27D and FIG. 27E).
# Commissural neuron culture, treatment and lysis. Rat E13 embryos were dissected and commissural neuron culture was prepared as previously described (Augsburger et al., 1999). […] The cells were then lysed on ice and the lysates were analyzed on immunoblots.
# Fzd3 = target: T1, Fzd3; experiment: Surface biotinylation and avidin immunoprecipitation of Fzd3 in HEK293T cells; assay type: cell-based
# Source text: Dvl and Vgl have antagonistic functions on Fzd3 phosphorylation. […] We transfected Fzd3-mCherry in HEK293T cells then surface biotinylated and immunoprecipitated (IP) the surface molecules with strepavidin-conjugated beads to obtain membrane-localized proteins. […] We tested whether these two Fzd3 bands represent phosphorylation states of the Frizzled3 protein, one being phosphorylated/hyperphosphorylated Fzd3 (p-Fzd3) and the other non-phosphorylated Fzd3. […] Phosphorylation of Fzds has been shown previously in Xenopus oocytes
# It has been proposed that Frizzled internalization is necessary for PCP signaling and phenotypes (Gagliardi et al., 2008; Yu et al., 2007). However, it has never been directly tested whether the cell surface level of Fzd, the Wnt-PCP receptor, changes upon Wnt addition. By using our surface biotinylation and immunoprecipitation with avidin, we show here, 15 minutes after Wnt addition, cell surface level of Fzd3-EGFP is diminished (FIG. 18C, Avidin IP, lane 3 anti-EGFP IB). […] This Fzd3 receptor oscillation from and to the membrane appeared to be a Wnt-Fzd specific effect because a non-Wnt binding receptor, such as the Insulin receptor stayed the same throughout the Wnt stimulation (FIG. 18C, Avidin IP, anti-Insulin Rβ IB). The Wnt-dependent Fzd3 oscillation is quantified in FIG. 18D (cross symboled line). […] In addition, PCP components appeared to effect this Wnt dependent oscillation of Fzd3 to and from the membrane. When Dvl1 is over expressed with Fzd3, we found within 30 minutes Fzd3 is unable to be internalized (FIG. 25B, lanes 5-7 and line). However, upon the introduction of Vangl2 into the transfection mix, Fzd3 oscillation is resumed (FIG. 25B, lanes 8-10 and circle symboled line).
# Surface biotinylation and immunopreciptiation. 30 hours after transfection with the indicated constructs into HEK293T cells (FuGene, Roche), followed by 8-hour incubation in Optimem and subsequent bath application of recombinant Wnt5a (R&D Systems), surface proteins were subsequently labeled on ice with 1 mg/ml of Sulfo-NHS-LC-Biotin reagent (Pierce). The cell lysates were collect over a period of 30 minutes on ice in the following lysis buffer: 20 mM Tris pH7.6, 150 mM NaCl, 1% Triton, 0.1% SDS, 2.5 mM EDTA, 2.5 mM EGTA, protease Inhibitors (Roche). For the membrane immunoprecipitation, 600 ug of protein extracts were incubated overnight and retrieved by NeutrAvidin-coated Agarose beads (Pierce), the bound fraction was boiled and loaded on SDS-PAGE gel and analyzed by western blot analysis. To visualize the input amount 20 ug of total lysate was loaded, and for the Avidin IPs the total amount was loaded for western blot analysis. The following primary antibodies were used for the immunoblots: α-Frizzled3 (Wang et al., 2006), α-Vangl2 (Santa Cruz), α-mCherry/DsRed (Clontech), α-Jun (Cell Signaling), α-phospho-Jun (Cell Signaling), α-JNK (Cell Signaling), α-phospho-JNK (Cell Signaling), α-Flag (Sigma), α-GAPDH (Chemicon), α-Insulin Rβ (Santa Cruz).
molecule,measurement,setting,value
"Wnt5a: recombinant Wnt5a protein (R&D Systems) (protein, UniProt P41221 62-380, looked up) Protein Wnt-5a: IIGAQPLCSQLAGLSQGQKKLCHLYQDHMQYIGEGAKTGIKECQYQFRHRRWNCSTVDNTSVFGRVMQIGSRETAFTYAVSAAGVVNAMSRACREGELSTCGCSRAARPKDLPRDWLWGGCGDNIDYGYRFAKEFVDARERERIHAKGSYESARILMNLHNNEAGRRTVYNLADVACKCHGVSGSCSLKTCWLQLADFRKVGDALKEKYDSAAAMRLNSRGKLVQVNSRFNSPTTQDLVYIDPSPDYCVRNESTGSLGTQGRLCNKTSEGMDGCELMCCGRGYDQFKTVQTERCHCKFHWCCYVKCKKCTEIVDQFVCK",increase of endogenous phospho-Jun levels,JNK,4 fold
same,time of Fzd3-EGFP internalization,"Fzd3; high concentration (200 ng/ml), batch #1",15 minute and two hour
same,time of Fzd3-EGFP internalization,"Fzd3; high concentration, batch #2",15 min and 60 min
same,time of Fzd3-EGFP internalization,"Fzd3; low concentration (100 ng/ml), batch #1",30 min
same,cell surface levels of Fzd3,Fzd3; upon the addition of Wnt5a,reduction of cell surface levels of Fzd3
